Target: synthetic CDR1 peptide … with N-terminal Biotin-[TTDS] linker (human)
Assay: affinity purification with mass spectrometry; spike-in: 2 ug recombinant HTRA2 added to 5 mg homogenized pig retina; beads with CDR peptide, scrambled peptide or biotin only (n = 3); eluates on 1-D SDS-PAGE, gel region above 49 kDa digested with trypsin, LC-MS/MS intensity of HTRA2

For “recombinant HTRA2/Omi (Human Serine Protease, cat. no. C760) (from UniProt O43464 32-458) (enzyme)”, the LC-MS intensity of recovered HTRA2 was 4.2e+08.

Source: article PMC6723090
